According to US20260248947A1, “Methods of Treating Cancer Using Anti-HER2 Antibody-Drug Conjugates and HER2 Kinase Inhibitors” (Seagen Inc., priority 2023, published 2026):

What was measured:
[1] = test system: gastric cancer PDX models; experiment: Tumor volume in gastric cancer PDX models with variable HER2 expression; format: in vivo, Mice; conditions: in a majority of the six PDX models; DV 2 mg/kg intravenous single dose
Description: FIGS. […] show the effects of combining DV and tucatinib vs. DV as a single agent in gastric cancer patient-derived xenograft (PDX) models with varying HER2 expression levels: GA13745 (IHC 1+; FIGS. 12A, 12B), GA6821 (IHC 1+; FIGS. 12C, 12D), CTG-0148 (IHC 1+; FIGS. 12E, 12F), CTG-3036 (IHC 2+; FIGS. 12G, 12H), CTG-3033 (IHC 3+; FIGS. 12I, 12J), and GA3102 (IHC 3+; FIGS. 12K, 12L). Treatment with T-DXd, a HER2-directed ADC, was also included in the study. Tumor volume data shown as mean±SEM. For each model, tumor growth was evaluated using a normalized area under the curve (AUC) metric (see, Guo, S. et al. (2019) BMC Cancer 19, 718) (FIGS. 12A, 12C, 12E, 12G, 12I, 12K). AUC was calculated for each model for the duration of the experiment, then compared by one-way ANOVA followed by Tukey's post-hoc test. The box-and-whisker plots represent the median and range for each treatment group (FIGS. 12B, 12D, 12F, 12H, 12J, 12L). […]
DV and tucatinib were tested as monotherapies and in combination in PDX models with varying HER2 expression levels. […] Mice (n=10/group) were treated with tucatinib (50 mg/kg oral, twice daily), DV (2 mg/kg, intravenous, single dose), a combination of tucatinib and DV, or T-DXd (2 mg/kg, intravenous, single dose), and tumor volume was measured over time.

HER2 = HER2 (Homo sapiens, UniProt P04626); experiment: Internalization of anti-HER2 ADCs DV, T-DM1 and T-DXd; format: cell-based; set-up: endogenous in cells; host or cells: SK-BR-3, BT-474, HCC-202, EFM-192C, BT-483, CAMA-1, NCI-N87, OE19, RERF-GC-1B; conditions: results considered preliminary
Experimental: The internalization experiments were conducted by detecting an antibody-bound pH sensitive probe using automated time-lapse microscopy. Briefly, breast cancer cell lines SK-BR-3, BT-474, HCC-202, EFM-192C, BT-483, and CAMA-1 and gastric cancer cell lines NCI-N87, OE19, and RERF-GC-1B were seeded in 96-well flat clear-bottom black tissue culture-treated microplates (Corning, cat #3603). Cells were plated at 1.5×10^4-2.5×10^4 cells/200 μL/well in growth medium and allowed to adhere overnight at 37° C. Disitamab, trastuzumab, and isotype control antibody (human IgG) were labeled with IncuCyte Fabfluor-pH Red Antibody Labeling Reagent (Essen Bioscience, cat #4722) according to the manufacturer's protocol. Volumes of the test antibodies, Fabfluor reagent and medium required were calculated at 2× the final assay concentration, and the Fabfluor reagent was added at a molar ratio of 1:3 to the antibody. Fabfluor dye fluoresces only upon exposure to an acidified compartment, namely endocytic vesicles and lysosomes, signifying internalization and intracellular processing of the ADC. Antibody and Fabfluor were mixed gently and incubated at 37° C. for 15 minutes. Media containing Fabfluor-labeled disitamab or trastuzumab ([…] final concentration) was added to cells. The plates were arranged on microplate trays in the IncuCyte SX3 system (Essen Bioscience), and scans were acquired using the Standard protocol. Phase data and red channel data (acquisition time set to 400 ms) were collected, with 4 images per well every 30 minutes for the first 6 hours and every 2 hours after that for up to 40 hours with the objective set at 10×. Quantification of fluorescence signal intensity was performed using the IncuCyte software analysis tool.
Internalization of anti-HER2 ADCs DV, T-DM1, and T-DXd (two HER2-targeting ADCs with trastuzumab as a backbone) was also tested in breast cancer cell lines SK-BR-3, HCC-202, and BT-483.

With disitamab vedotin [DV] the “anti-tumor activity of DV monotherapy” value [1] was “anti-tumor activity”, the “internalization compared to T-DM1 and T-DXd” value (HER2; BT-483) was “enhanced internalization” and the “internalization compared to T-DM1 and T-DXd” value (HER2; HCC-202) was “enhanced internalization”. For the same substance, the “internalization compared to T-DM1 and T-DXd” value (HER2; SK-BR-3) was “enhanced internalization”.
